The record followed here is paper PMC11436023.

Experiment [1] addresses SpyCatcher mi3 nanoparticle. Kind of experiment: negative stain electron microscopy; NPs alone or after coupling, on glow-discharged carbon-coated grids, 2% uranyl acetate; 2D classification and ~20 Å 3D maps with icosahedral symmetry imposed.
The target in experiment [2] is SpyCatcher mi3 nanoparticle. Kind of experiment: cryo-EM structure; CAP255 gp140 SpyTag-SpyCatcher mi3 NPs; whole NP 9.4 Å (icosahedral), masked mi3 5.4 Å, single Env trimer-SpyCatcher 17.7 Å without symmetry.
For experiment [3], the target named is CAP255 gp140 SpyTag (HIV-1 subtype C (patient CAP255)). Kind of experiment: SEC + native gel or EMSA; lectin-purified CAP255 gp140 SpyTag on HiLoad 16/600 Superdex 200 pg; fractions on Blue NativePAGE 3-12% Bis-Tris gels, Coomassie.
The target in experiment [4] is SpyCatcher mi3 nanoparticle. As to the kind of experiment: covalent SpyTag-SpyCatcher coupling, read by SDS-PAGE; MBP SpyTag mixed with SpyCatcher mi3 NPs at 1:1 and 1:2 molar ratios, 4 °C overnight, TBS (25 mM Tris-HCl, 300 mM NaCl, pH 8.5); Coomassie-stained SDS-PAGE, band intensities quantified.

For the substance “CAP255 gp140 SpyTag (domain or fragment)”, the stoichiometry N (Env trimers per NP) in experiment [1] and in experiment [2] was 12 throughout. Also, the stoichiometry N in experiment [3] is 3.
For MBP SpyTag, in experiment [4], the coupling efficiency came out at 100% and the stoichiometry N (MBP monomers per NP) was 60.
